Assay results from patent publication US20250296984A1, “THERAPEUTIC AND DIAGNOSTIC AGENTS AND USES THEREOF” (priority 2022, published 2025).

Assays:
[1] = target: T1, US28 protein on CHO-US28-A1 cells (Human cytomegalovirus, UniProt P69332, D170N/D19A); assay: Flow cytometry (FACS) surface binding to CHO-US28-A1 cells; set-up: species or system human cytomegalovirus (HCMV); settings: recombinant antibody (rAb), FIG. 7
T1 construct: expressed in transfected cells; host or cells: CHO-K1 (vector pCDH-EF1a-MCS)
Source text: FIG. 2. Flowcytometry analysis showing surface binding of the US28-13-5G6-1D3 antibody clone on CHO-US28-A1 cells. From the left, blank control, 2nd antibody control and clone US28-13-5G6-1D3 Ab binding on the surface of the CHO-US28-A1 cells.
FIG. 3. The positive surface binding of the clone US28-13-5G6-1D3 on CHO-US28-A1 cells was further validated by gradient dilution in FACS analysis. From the left, the clone US28-13-5G6-1D3 Ab surface binding to the CHO-US28-A1 cells in dilutions 1:20, 1:50, 1:200 (w/v).
FIG. 4. The positive surface binding of the clone US28-13-5G6-1D3 on CHO-US28-A1 cells was compared with the US28 negative CHO control cells. The clone US28-13-5G6-1D3 Ab bound 15-fold more to the surface of the US28 positive CHO-US28-A1 cells than to the US28 negative CHO cells in 1:50 (w/v).
FIG. 7. […] The surface binding of the 13-5G6-1D3 rAb to CHO cells was only measured in 1:10 dilution (w/v) and was 0.77% after removing the binding to blank and anti-mouse IgG-Alexa 488 secondary Ab controls. […]
In a further embodiment, it is preferred that a binding molecule of the present invention binds preferentially to US28-expressing cells (such as CHO cells engineered to express US28) compared to its binding of US28-negative cells (such as wildtype CHO cells), for example, at a 1:50 (w/v) dilution, for example as determined by flow cytometry assay. […]

[2] = tested on: human primary cells (adrenal cortical, kidney epithelial, cardiac microvascular endothelial, liver epithelial, vein smooth muscle); assay: FACS off-target binding to human primary cells; settings: FIG. 19 A
Description: Primary cells from different tissue origin were cultured in T25 flasks coated with 3 mL Gelatin-Based Coating Solution (Cellbiologeics, 6950) and placed at 37° C. for 1h. Excess solution was aspirated before cell seeding. 15 mL centrifuge tube were prepared with 6 mL preheated complete medium. Primary cells stored in liquid nitrogen were quickly thawed in 37° C. water bath for <1 min, and transferred to the 15 mL centrifuge tube. Cells were centrifuged at 1000 rpm for 5 minutes, before aspirating the supernatant and resuspending the cell pellet in 6 mL complete medium. Resuspended cells were added into the pre-coated T25 flask, and incubated in a humidified incubator at 37° C. with 5% CO2. […]
Flowcytometry was used to analyze cell surface binding by the US28 antibodies. Upon cell harvest, adherent non-infected and US28 overexpressing or HCMV infected cells were washed three times with cell staining buffer (phosphate-buffered saline (PBS (Amresco, Cleveland, 44139, USA) added 0.5% BSA and 0.05% Sodium Azide (NaN3)). The cells were trypisinized and then resuspended in DMEM with 10% FBS to inhibit the action of trypsin. The cells were then pelleted at 400×g for 10 minutes and washed three times in cell staining buffer. Cell viability and cell concentration were measured by tryphan blue viability assay and a cell counter (Countess, Invitrogen, Carlsbad, CA 92008, USA). […]

| Molecule | fold more surface binding on CHO-US28-A1 cells than to normal CHO cells [1] [fold] | surface binding on human primary cells [2] [%] |
| --- | --- | --- |
| 13-5G6-1D3 rAb: recombinant antibody product of US28-13-5G6-1D3 produced in HEK293-F cells (antibody) heavy: EVKLVESGGGLVQPGGSLRLACATSGFTFTDYYMSWVRQPPGKALEWLGFIRSKANGYTTEYSASVKGRFTISRDNSQSILYLQMNTLRSEDSATYYCARDERRTAWLAYWGQGTLVTVSAAKTTPPSVYPLAPGSAAQTNSMVTLGCLVKGYFPEPVTVTWNSGSLSSGVHTFPAVLQSDLYTLSSSVTVPSSTWPSETVTCNVAHPASSTKVDKKIVPRDCGCKPCICTVPEVSSVFIFPPKPKDVLTITLTPKVTCVVVDISKDDPEVQFSWFVDDVEVHTAQTQPREEQFNSTFRSVSELPIMHQDWLNGKEFKCRVNSAAFPAPIEKTISKTKGRPKAPQVYTIPPPKEQMAKDKVSLTCMITDFFPEDITVEWQWNGQPAENYKNTQPIMDTDGSYFIYSKLNVQKSNWEAGNTFTCSVLHEGLHNHHTEKSLSHSPGK light: DVLMTQTPLSLPVSLGDQASISCRSSQSIVHSNGNTYLDWYLQKPGQSPKLLIYKVSNRFSGVPDRFSGSGSGTDFTLKISRVEAEDLGVYYCFQGSHVPTWTFGGGTKLEIKRADAAPTVSIFPPSSEQLTSGGASVVCFLNNFYPKDINVKWKIDGSERQNGVLNSWTDQDSKDSTYSMSSTLTLTKDEYERHNSYTCEATHKTSTSPIVKSFNRNEC | > 21 |  |
| 13-5G6-1D3: mouse monoclonal IgG1 kappa antibody against US28 ECD3; VH SEQ ID NO: 12, VL SEQ ID NO: 18 (antibody, V domains shown, Mature form of VH sequence of 1D3, without the leader sequence; Mature form of VL sequence of 1D3, without the leader sequence) VH: EVKLVESGGGLVQPGGSLRLACATSGFTFTDYYMSWVRQPPGKALEWLGFIRSKANGYTTEYSASVKGRFTISRDNSQSILYLQMNTLRSEDSATYYCARDERRTAWLAYWGQGTLVTVSA VL: DVLMTQTPLSLPVSLGDQASISCRSSQSIVHSNGNTYLDWYLQKPGQSPKLLIYKVSNRFSGVPDRFSGSGSGTDFTLKISRVEAEDLGVYYCFQGSHVPTWTFGGGTKLEIK |  | < 1 |
